The record followed here is US20260242419A1, “A CYCLIC PEPTIDE FOR TRAPPING INTERLEUKIN-1 BETA” (Merck Sharp & Dohme LLC, priority 2023, published 2026).

Starred links: 1 amine or outer side, 2 acyl side, 3 side chain; linkers in the order of their positions; H or OH if unused. Non-standard residues stand in square brackets, D forms with d. dProc4CH21Naph4F = (2R,4R)-4-[(4-fluoro-1-naphthyl)methyl]pyrrolidine-2-carboxylic acid, O=C([C@H]1C[C@@H](Cc2ccc(F)c3ccccc23)CN1[*:1])[*:2]; Bip4CONMe2 = (2S)-2-amino-3-[4-[4-(dimethylcarbamoyl)phenyl]phenyl]propanoic acid, CN(C)C(=O)c1ccc(-c2ccc(C[C@H](N[*:1])C(=O)[*:2])cc2)cc1; dProc3Bn4Cl = (2R,3S)-3-[(4-chlorophenyl)methyl]pyrrolidine-2-carboxylic acid, O=C([C@H]1[C@@H](Cc2ccc(Cl)cc2)CCN1[*:1])[*:2]; dProc4Bn4Cl = (2R,4R)-4-[(4-chlorophenyl)methyl]pyrrolidine-2-carboxylic acid, O=C([C@H]1C[C@@H](Cc2ccc(Cl)cc2)CN1[*:1])[*:2]; TyrEtNAc = (2S)-3-[4-(2-acetamidoethoxy)phenyl]-2-amino-propanoic acid, CC(=O)NCCOc1ccc(C[C@H](N[*:1])C(=O)[*:2])cc1; dProc3CH24Pal = (2R,3S)-3-(4-pyridylmethyl)pyrrolidine-2-carboxylic acid, O=C([C@H]1[C@@H](Cc2ccncc2)CCN1[*:1])[*:2]; 4PyrimAla = (2S)-2-amino-3-pyrimidin-4-yl-propanoic acid, O=C([C@H](Cc1ccncn1)N[*:1])[*:2]; Phe4pcCCA = (1R,4s)-4-(4-((S)-2-amino-2-carboxyethyl)phenyl)cyclohexane-1-carboxylic acid; dPro(4R-(4-pyridylmethyl)) = O=C(O)[C@H]1C[C@@H](Cc2ccncc2)CN1; Trp(βS-Me,4-F) = C[C@@H](c1c[nH]c2cccc(F)c12)[C@H](N)C(=O)O; Bip(4'-CONH2) = NC(=O)c1ccc(-c2ccc(C[C@H](N)C(=O)O)cc2)cc1; Bip(4'-COOH) = N[C@@H](Cc1ccc(-c2ccc(C(=O)O)cc2)cc1)C(=O)O; Ala(1-bicyclo(1.1.1)pentyl) = N[C@@H](CC12CC(C1)C2)C(=O)O; dPro(4R-Bzl(4-F)) = O=C(O)[C@H]1C[C@@H](Cc2ccc(F)cc2)CN1; dPro(3S-(4-F-Bn)) = O=C(O)[C@@H]1NCC[C@@H]1Cc1ccc(F)cc1; Bip(4'-Cl) = N[C@@H](Cc1ccc(-c2ccc(Cl)cc2)cc1)C(=O)O; Ala(pyrimidin-5-yl) = N[C@@H](Cc1cncnc1)C(=O)O; Phe(4-COOH) = N[C@@H](Cc1ccc(C(=O)O)cc1)C(=O)O; Bip = N[C@@H](Cc1ccc(-c2ccccc2)cc1)C(=O)O; Pro(cis-4-F) = O=C(O)[C@@H]1C[C@H](F)CN1; d(αMeD) = C[C@@](N)(CC(=O)O)C(=O)O; 4Pal = N[C@@H](Cc1ccncc1)C(=O)O; aThr = C[C@H](O)[C@H](N)C(=O)O; d(αMeS) = C[C@@](N)(CO)C(=O)O; Dab = NCC[C@H](N)C(=O)O; Aib = CC(C)(N)C(=O)O; Sar = CNCC(=O)O

The assay concerns the target Recombinant human IL-1β (BioLegend 579404) (human, UniProt P01584 117-269). Briefly: cell-based or functional assay.
With cyclo([Bip(4'-Cl)][4Pal][Phe(4-COOH)]G[Pro(cis-4-F)][Trp(βS-Me,4-F)][Aib]SW[d(αMeD)][Ala(pyrimidin-5-yl)]Q[Dab]G[dPro(4R-(4-pyridylmethyl))]) (ring closure inferred) [SEQ ID NO 344], the “MRC5 IC50” value amounted to 0.022 nM.
In the case of cyclo([Bip(4'-CONH2)][4Pal][Phe(4-COOH)]G[Pro(cis-4-F)][Trp(βS-Me,4-F)][Aib]SW[d(αMeS)][Ala(pyrimidin-5-yl)]Q[Dab]G[dPro(4R-(4-pyridylmethyl))]) (ring closure inferred) [SEQ ID NO 339] it was 0.024 nM; in that of cyclo([Bip4CONMe2][Ala(1-bicyclo(1.1.1)pentyl)][Phe(4-COOH)]G[Pro(cis-4-F)][Trp(βS-Me,4-F)][Aib]SW[d(αMeD)][Ala(pyrimidin-5-yl)]Q[Dab]G[dPro(4R-(4-pyridylmethyl))]) (ring closure inferred) [SEQ ID NO 341], 0.024 nM.
In the case of cyclo([Phe4pcCCA][Ala(1-bicyclo(1.1.1)pentyl)][Phe(4-COOH)]G[Pro(cis-4-F)][Trp(βS-Me,4-F)][Aib]SW[d(αMeD)][aThr]Q[Dab]G[dPro(4R-(4-pyridylmethyl))]) (ring closure inferred) [SEQ ID NO 334] it was 0.022 nM; in that of cyclo([Bip(4'-COOH)][4Pal][Phe(4-COOH)]G[Pro(cis-4-F)][Trp(βS-Me,4-F)][Aib]SW[d(αMeD)][aThr]Q[Dab][Sar][dPro(4R-(4-pyridylmethyl))]) (ring closure inferred) [SEQ ID NO 337], 0.022 nM.
With cyclo([Bip(4'-COOH)][4Pal][Phe(4-COOH)]G[Pro(cis-4-F)][Trp(βS-Me,4-F)][Aib]SW[d(αMeD)][Ala(pyrimidin-5-yl)]Q[Dab]G[dPro(3S-(4-F-Bn))]) (ring closure inferred) [SEQ ID NO 331], the “MRC5 IC50” value is 0.011 nM.
To cyclo([Bip(4'-CONH2)][Ala(1-bicyclo(1.1.1)pentyl)][Phe(4-COOH)]G[Pro(cis-4-F)][Trp(βS-Me,4-F)][Aib]SW[d(αMeD)][Ala(pyrimidin-5-yl)]Q[Dab]G[dPro(4R-(4-pyridylmethyl))]) (ring closure inferred) [SEQ ID NO 342] belongs 0.022 nM; to cyclo([Bip][4Pal][Phe(4-COOH)]G[Pro(cis-4-F)][Trp(βS-Me,4-F)][Aib]SW[d(αMeD)][Ala(pyrimidin-5-yl)]Q[Dab]G[dPro(4R-(4-pyridylmethyl))]) (ring closure inferred) [SEQ ID NO 333], 0.022 nM; to cyclo([Bip][Ala(1-bicyclo(1.1.1)pentyl)][Phe(4-COOH)]G[Pro(cis-4-F)][Trp(βS-Me,4-F)][Aib]SW[d(αMeD)][Ala(pyrimidin-5-yl)]Q[Dab]G[dPro(4R-(4-pyridylmethyl))]) (ring closure inferred) [SEQ ID NO 343], 0.026 nM.
In the case of cyclo([Bip(4'-COOH)][4Pal][Phe(4-COOH)]G[Pro(cis-4-F)][Trp(βS-Me,4-F)][Aib]SW[d(αMeD)][Ala(pyrimidin-5-yl)]Q[Dab]G[dProc3Bn4Cl]) (ring closure inferred) [SEQ ID NO 330] it was 0.008 nM; in that of cyclo([Phe4pcCCA][Ala(1-bicyclo(1.1.1)pentyl)][Phe(4-COOH)]G[Pro(cis-4-F)][Trp(βS-Me,4-F)][Aib]SW[d(αMeD)][Ala(pyrimidin-5-yl)]Q[Dab]G[dPro(4R-(4-pyridylmethyl))]) (ring closure inferred) [SEQ ID NO 335], 0.022 nM; in that of cyclo([Bip(4'-COOH)][4Pal][Phe(4-COOH)]G[Pro(cis-4-F)][Trp(βS-Me,4-F)][Aib]SW[d(αMeD)][Ala(pyrimidin-5-yl)]Q[Dab]G[dProc4Bn4Cl]) (ring closure inferred) [SEQ ID NO 329], 0.009 nM.
To cyclo([Bip][4Pal][Phe(4-COOH)]G[Pro(cis-4-F)][Trp(βS-Me,4-F)][Aib]SW[d(αMeS)][Ala(pyrimidin-5-yl)]Q[Dab]G[dPro(4R-(4-pyridylmethyl))]) (ring closure inferred) [SEQ ID NO 340] belongs 0.021 nM; to cyclo([Bip4CONMe2][4Pal][Phe(4-COOH)]G[Pro(cis-4-F)][Trp(βS-Me,4-F)][Aib]SW[d(αMeS)][Ala(pyrimidin-5-yl)]Q[Dab]G[dPro(4R-(4-pyridylmethyl))]) (ring closure inferred) [SEQ ID NO 338], 0.018 nM; to cyclo([Bip(4'-COOH)][4Pal][Phe(4-COOH)]G[Pro(cis-4-F)][Trp(βS-Me,4-F)][Aib]SW[d(αMeD)][Ala(pyrimidin-5-yl)]Q[Dab]G[dProc3CH24Pal]) (ring closure inferred) [SEQ ID NO 328], 0.008 nM.
Turning to cyclo([Bip(4'-COOH)][4Pal][Phe(4-COOH)]G[Pro(cis-4-F)][Trp(βS-Me,4-F)][Aib]SW[d(αMeD)][4PyrimAla]Q[Dab]G[dPro(4R-Bzl(4-F))]) (ring closure inferred) [SEQ ID NO 332], the “MRC5 IC50” value came to 0.013 nM.
Consider cyclo([Bip(4'-COOH)][4Pal][Phe(4-COOH)]G[Pro(cis-4-F)][Trp(βS-Me,4-F)][Aib]SW[d(αMeD)][Ala(pyrimidin-5-yl)]Q[Dab]G[dProc4CH21Naph4F]) (ring closure inferred) [SEQ ID NO 327], for which the “MRC5 IC50” value is 0.016 nM.
In the case of cyclo([Bip(4'-COOH)][4Pal][Phe(4-COOH)]G[Pro(cis-4-F)][Trp(βS-Me,4-F)][Aib]EW[Aib][4PyrimAla]Q[Dab]G[dPro(4R-Bzl(4-F))]) (ring closure inferred) [SEQ ID NO 345], the “MRC5 IC50” value turned out to be 0.012 nM.
In the case of cyclo([TyrEtNAc][4Pal][Phe(4-COOH)]G[Pro(cis-4-F)][Trp(βS-Me,4-F)][Aib]EW[Aib]FQ[Dab]G[dPro(4R-(4-pyridylmethyl))]) (ring closure inferred) [SEQ ID NO 336], the “MRC5 IC50” value was determined as 0.023 nM.
To cyclo([Bip(4'-COOH)][4Pal][Phe(4-COOH)]G[Pro(cis-4-F)][Trp(βS-Me,4-F)][Aib]EW[Aib][Ala(pyrimidin-5-yl)]Q[Dab]G[dPro(3S-(4-F-Bn))]) (ring closure inferred) [SEQ ID NO 346] belongs 0.01 nM.
